Data taken from patent US20100254995A1.

Experiments:
[1] = molecular target: human TNFR1 (soluble recombinant protein) (human) (UniProt P19438); experiment: phage ELISA, plate coated with 1 nM TNFRI, anti-M13-HRP; phage pre-treated 1 h room temp with 100 ug/ml trypsin; phage input 1.13E+10
[2] = molecular target: human TNFR1 (soluble recombinant protein) (human) (UniProt P19438); experiment: phage ELISA, plate coated with 1 nM TNFRI, anti-M13-HRP; phage pre-treated 1 h room temp with 1 mg/ml trypsin; phage input 1.13E+10
[3] = molecular target: human TNFR1 (soluble recombinant protein) (human) (UniProt P19438); experiment: phage ELISA, plate coated with 1 nM TNFRI, anti-M13-HRP; phage pre-treated 1 h room temp with 10 ug/ml trypsin; phage input 1.13E+10

Chain of human TNFR1 (soluble recombinant protein) (human) (P19438 41-201 limits assumed): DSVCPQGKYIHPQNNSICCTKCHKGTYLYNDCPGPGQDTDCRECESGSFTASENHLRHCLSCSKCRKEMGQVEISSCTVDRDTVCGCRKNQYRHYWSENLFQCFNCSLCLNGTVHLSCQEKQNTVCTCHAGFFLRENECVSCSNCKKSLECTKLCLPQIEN

Question: How did the phage ELISA signal (read-out not named) [1] turn out when DOM1h-131 was run?
Answer: 0.284

Question: What about the phage ELISA signal (read-out not named) [2] of the same substance?
Answer: 0.183

Question: And the phage ELISA signal (read-out not named) [3]?
Answer: 0.86
